Source: the nanobody polyreactivity screen of Harvey et al. (2022)

Assay: yeast display, Sf9 membrane polyspecificity reagent, FACS + sequencing; frameworks hold sequencing errors
In short: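 Nanobodies from a synthetic yeast display library (Saccharomyces cerevisiae BJ5465), induced 36–48 hours with galactose, were stained 1 hour at 4 °C with 10% biotinylated, detergent-solubilized Sf9 membrane reagent, enriched on streptavidin microbeads, then FACS-sorted. Anti-HA (expression) and streptavidin (reagent binding) fluorescence set low and high (top ~1%) gates. Polyreactivity labels come from the gate of origin. Genes were colony-PCR amplified, MiSeq 2 × 250 sequenced and filtered by CDR length.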

| Sequence | polyreactivity (PSR sort gate) |
| --- | --- |
| QVQLVESGGVLVQAGGSLRLSCAASGSIYTWYAMGWYRQAPGKERELVAAITRGGSTYADSVKGRFTISRENAKNTVYLQMNSLKPEDTAVYYCNAVYGVYDFNYWGQGTQVTVSS | low polyreactivity |
| QVQLVESAAGLVQAGGSLRLSCAASGGIFHGYAMGWYRHAPGKERELVAAISWSTGSTYYADSVKGRFTISRDNAKNTVYLQMNSLKPEDTAVYYCAARYLSGTSRYYYWGQGTQVTVSS | high polyreactivity |
| QVQLVESGGGLVQAGGSLRLSCAASGSTSGSYGMGWYRQAPGKERELVAAIRISGDSTYYADSVKGRFTISRDNAKNTVYLQMNSLKPEDTAVYYCAAEAFFWYYGWYDYWGQGTQVTVSS | high polyreactivity |
| QVQLVESGGGLVQAGGSLRLSCAASGLTFVKNVMGWYRQAPGKERELVAAISRRGGSTYYADSVKGRFTISRDNAKNTVYLQMNSLKPEDTAVYYCNAVLNQLSYIYPAVGYWGQGTQVTVSS | high polyreactivity |
| QVQLVESGGGLVQAGGSLRLSCAASGYTIYYYAMGWYRQAPGKERELVAVITSRGTRTYYADSVQGRFTISRDNAKNTVYLQMNSLKPEDTAVYYCNKARGVAYDWGQGTQVTVSS | high polyreactivity |
| QVQLVESGGGLVQAGGSLRLSCAASGFIFRPYVMGWYRQAPGKERELVAAISRSGSSTYYADSVKGRFTISRDNAKNTVYLQMNSLKPEDTAVYYCNAVYYLYKGDYWGQGTQVTVSS | high polyreactivity |
| QVQLVESGGGLVQAGGSLRLSCAASGITFGANALGWYRQAPGKERELVAEITWSGGDTYYADSVKGRFTISRDNAKNTVYLQMNSLKPEDTAVYYCNALQPGLGSPLGEYDYWGQGTQVTVSS | low polyreactivity |
| QVQLVESGGGLVQAGGSLRLSCPASGFTFVTNAMGWYRQAPGKERELVAAISKSGDRTYYADSVKGRFTISRDNAKNTVYLQMNSLKPEDTAVYYCAAGNSNWGQGTQVTVSS | high polyreactivity |
| QVQLVESGGGLVQAGGSLRLSCAASGRIFPLYAMGWYRQAPGKERELVARITYSGGSTYYADSVKGRFTISRDNAKNTVYLQMNSLKPEDTAVYYCAKDTYGRSTRNGYWGQGTQVTVSS | low polyreactivity |
| QVQLVESGGGLVQAGGSLRLSCAASGRIFKYYTMGWYRQAPGKERELVAAISRDDSTNYADSVKGRFTISRDNAKNTVYLQMNSLKPEDTAVYYCAKGYHQYAGFYYWGLGTQVTVSS | high polyreactivity |
| QVQLVESGGGLVQAGGSLRLSCAASGSTFYYYGMGWYRQAPGKERELVAAINWSGGTTYYADSVKGRFTISRDNAKNTVYLQMNSLKPEDTAVYYCATEHNHLGYYYWGQGTQVTVSS | low polyreactivity |
| QVQLVESGGGLVQAGGRLLLICAASGRIFIANAMGWYSKAPGKERELVATISRSGVSTNYADSVKVRFTISRDNAKNSVYLQMNSLKPEDTAVYYCADIRSGGQGQGYGYWGQVTQVTVSS | high polyreactivity |
| QVQLVESGGGLVQAGGSLRLSCAASGGIFSVYAMGWYRQAPGKEREFVAAISKSGGRTYYADSVKGRFTISRDNAKNTVYLQMNSLKPEDTAVYYWNVVRRSPGDYSYYYWGQGTQVTVSS | low polyreactivity |
| QVQRVESGGGLVQAGGSLRLSCAASGSIFYRNVMGWYRPAPGKERELVAAISSGTSTYYADSVKGRFTISRDNAKNTVYLQMTSLKPEDPAVYYCAAEGPHYYGQRWYYGVDYWGQGTQVTVSS | low polyreactivity |
| QVQLVESGGGLVQAGGSLRLSCAASGRTFRRNAMGWYRQAPGKEWELVADISNGDSTKYADSVKGRFTISRDNAKNTVYLQMNSLKPEDTAVYYCNAQRYRVVVYNSHGWQTRNYWGQGTQVTVSS | low polyreactivity |
| QVQLVESGGGLVQAGGSLRLSCAASGRIFRVNAMGWYRQAPGKERELVARIDSGGRTNYADSVKGRFTISRDNAKNTVYLQMTSLKPEDTAVYYCARVFSLARSWYRYYYWGQGTQVTVSS | high polyreactivity |

| Sequence | polyreactivity (PSR sort gate) |
| --- | --- |
| QVQLVESGGGLVQAGGSLRLSSAASGFTFSGYDMGWYRQAPGKERELVAGISSGGVSTTYADSVNGRFTISRDNAKNTVYLQMNSLKQEDTAVYYCNAEWTSFDWGQGTQVTVSS | low polyreactivity |
| QVQLVESGGGLVQAGGSLRLSCAASGRIFSYYAMGWYRQAPGKERELVAAISRTGGTTYYADSVKGRFTISRDTAKNTVFLQMNSLKPEDTAVYYCNAVKAPYLRYDYWGQGTQVTVSS | high polyreactivity |
| QVQLVESGGGLVQAGGRLSLSCAASGITFLGYAMGWYREAPGKDSELVAAISSGGSTYYADSVKGRFTISRDNAKNTVYLQMNILKPEDTAVYYCAKAVYYRDPYGGDYWGQGTQVTVSS | low polyreactivity |
| QVQLVESGGGLVQAGGSLRLSCAASGIPFEGYAMGWYRQAPGKERELVAAIRSSGTSTYYADSVKGRFTISRDTAKNTVYLQMNSLKPEDTAVYYCNRARSSSRYDYWGQGTQVTVSS | low polyreactivity |
| QVQLVESGGGLVQAGGSLRLSCASSGRIFRYYAMGWYRQAPGKERELVAAINWSGGSTYYADSVKGRFTISRDNAKNTVYLQMNSLNPEDTAVYYCYRRAYIRYDSSSLDYWGQGTQVTVSS | low polyreactivity |
| QVQLVESGGGLVQAGGSLRLSCAASGSIFRWNAMGSYRQAPGKERELVAVINSSGGSTYYADSVKGRFTISRDNAKNTVYLQMNSLKPEDTAVYYCAAVIYKIIYGQYAYDYWGQGTQVTVSS | low polyreactivity |
| QVQLVESGGGLVQAGGSLSLSCAASGRIFGRYAMGWYRQAPGTERVLVAVISSGGSKYYADSVKGRFTISRDNAKNTVYLQMNSLKPEDTAVYYCAAVNRRGYDYWGQGTQVTVSS | low polyreactivity |
| QVQLVESGGGLVQAGGSLRLSCAASGITFYGNDMGWYRQAPGKERELVAAISANDGNTYYADSVKGRFTISRDNAKNTVYLQMNSLKPEDTAVYYCAAERYEDYTEYDYWGQGTQVTVSS | low polyreactivity |
| QVQLVESGGGLVQAGGSLRLSCAASGFTFVIYAMGWYRQAPGTERELVATITGSGGSTYYADSVKWRITISRDNAKNTVYLQMNSLKPEDTAVYYCAARRRYQRYSRYDYWGLGTQVTVSS | high polyreactivity |
| QVQLVESGGGLVQAGGSLRLSCAASGLIFSAYDMGWYRQAPGKERELVASITSGGSTYYADSVKGRFTISRDNAKNTVYLQMNSLKPEDTAVYYCNADGGWYQYRWRYIEGEYWGQGTQVTLSS | low polyreactivity |
| QVQLVESGGCLVQAGGSLRLTCAASGFTFVYNAMGWYRQDPGKERELVARISVSGGSTYYADSVKGRFTISRDNAKNTVYLQMNSLKPEDTSVYYCAAELSAPQPDYQLKVDYYYWGQGTQVTVSS | low polyreactivity |
| QVQLVESGGGLVQAGGSLRLSCAASGSTFYYYAMGGYRQAPGKERELVAAINDAGGTNYADSVKGRFTISRDNAKNTVYLQMNSLKPEDTAVYYCAADGRIYLTYHEMEYWGQVTQVTVSS | low polyreactivity |
| QVQLVESGGGLVQAGGSLRLSCAASGRIFSHDVMGWYRQAPGKERELVAAISSSGGSTYYADSVKGRFTISRDNAKNTVYLQMNSLKPEDTAVYYCAADQWASGTDDYWGQGTEVTVSS | low polyreactivity |
| QVQLVESGGGLVQAGGSLRLSCADYGYIFVGNAMGCYRQAPGKDRELVAAINSGGSTNYADSVKGRFTISRDNEKNTVYLQMNSLKPEDTAVYYCNAEAPRYNYGRMDYLGQGTQVTVSS | low polyreactivity |
| QDQLVESGGGLVQAGGSLRLSCAASGSIFYRNAMGWYRQAPGKERELVAAISSDGSTNYADSVKGRFTISRDNAKNTVYLQMNSLKPEDTAVYYCAAPWTQILDYWGQGTQVTVSS | low polyreactivity |
| QVHLVESGGCLVQAGGSLRLSCAASGITFGYYAMGWYRQAPGKERELVAAITTRGGSTSDADSVKGRFTISRDNAKNTVYFQMNSLKPEDNAVYYCAARWRQRKSVRYGQHGYDYWGQGTQVTVSS | high polyreactivity |
